Where two headings read alike, the source gives them in different places.
Key:
[1] = ELISA, PMO uptake in mild SMA model (F0 mice) injected at PD5; type: in vivo, mouse; details: 40 mg/kg s.c. at PD5, tissues at PD7, ELISA
Source text: (§1) To target the motor neurons in the CNS via systemic administration, AOs need to cross the BBB in patients with SMA. For this study, we used a milder SMA model (F0) (Smn^–/– SMN2^+/+) with 4 SMN2 copies obtained from Jackson Laboratory (JAX 005058) that are viable, are fertile, and have shortened, thick tails since severe SMA model mice have a median survival of only 8 days, making it difficult to evaluate the treatment efficacy when the BBB is mature. […] To determine the ability of DG9-PMO to reach the CNS, we subcutaneously injected 40 mg/kg or 80 mg/kg fluorescently tagged DG9-PMO into F0 mice at PD0 or PD5. […] We also performed an ELISA to examine the biodistribution of unconjugated PMO and DG9-PMO at PD7.
ELISA was performed as described previously ([51], [69]). In brief, protein was extracted from frozen tissue sections (~20 μm) using RIPA buffer with cOmplete, Mini, EDTA-free protease inhibitor cocktail. The probes (Integrated DNA Technologies) were designed complementary to the PMO sequence with phosphorothioated backbones at the 5′ and 3′ ends. The 5′ and 3′ ends were labeled with digoxigenin and biotin, respectively. […] Attophos AP Fluorescent Substrate (Promega) was added to the PMO/DG9-PMO probes, and fluorescence was detected at 444 nm excitation and 555 nm emission by using a monochromator SpectraMax M3 plate reader (Molecular Devices).

SMN2 (ISS-N1 intron 7) = test: FL-SMN2 expression by RT-qPCR in mild SMA model (F0 mice); type: in vivo, mouse; details: s.c. at PD5; PD7 (40 mg/kg) and PD13 (80 mg/kg)
Source text: as §1
Frozen tissues harvested at PD7 were sectioned using a cryostat (Leica CM 1950) into 20 μm sections. […] The relative gene expression for FL-SMN2 over the deletion of SMN2 transcripts without exon 7 was normalized to the NT control samples and analyzed using the ΔΔCt method. The expression of denervation markers relative to 18S was normalized to the healthy heterozygous control samples collected at PD30 and analyzed using the ΔΔCt method.

[2] = Hybridization-based ELISA, PMO concentration in tissues of severe SMA mice; type: in vivo; details: mouse, sc, 40 mg/kg s.c. at PD0, PD7 mice
Method: To determine the effects of DG9 peptide in increasing PMO uptake, we evaluated the biodistribution of unconjugated PMO and DG9-PMO in the peripheral and CNS tissues. We used a well-established hybridization-based ELISA designed specifically to detect the PMO to compare the concentration of DG9-PMO and unconjugated PMO in the tissues of treated PD7 mice ([51]).
ELISA was performed as described previously ([51], [69]). In brief, protein was extracted from frozen tissue sections (~20 μm) using RIPA buffer with cOmplete, Mini, EDTA-free protease inhibitor cocktail. The probes (Integrated DNA Technologies) were designed complementary to the PMO sequence with phosphorothioated backbones at the 5′ and 3′ ends. The 5′ and 3′ ends were labeled with digoxigenin and biotin, respectively. The tissue lysates (0.02 mg/mL protein concentration) were pretreated with 2.5 mg/mL trypsin containing 10 mM CaCl2 at 37°C overnight to digest the DG9 peptide. The probes were added to the samples and allowed to hybridize at 37°C for 30 minutes. Following the probe-PMO hybridization, the hybridized mixtures were added to Pierce NeutrAvidin Coated 96-Well Plates, Black (Thermo Fisher Scientific), to allow avidin-biotin interaction between the plate and the probes. The unhybridized probes were digested using micrococcal nuclease enzyme at 0.1 gel unit/μL (New England Biolabs). This was followed by the addition of an anti-digoxigenin antibody conjugated with ALP 1:5,000 (11093274910, Roche Applied Sciences). Attophos AP Fluorescent Substrate (Promega) was added to the PMO/DG9-PMO probes, and fluorescence was detected at 444 nm excitation and 555 nm emission by using a monochromator SpectraMax M3 plate reader (Molecular Devices).

SMN protein = SMN protein levels by Western blotting in tissues of severe SMA mice; type: in vivo, mouse
Method: To evaluate the change of FL-SMN2 expression relative to Δ7 SMN2 transcripts, we used real-time quantitative PCR (RT-qPCR) at PD7; the mice were treated with DG9-PMO at PD0. In both doses, DG9-PMO treatment led to a 4- to 30-fold higher FL-SMN2 expression than NT control in both peripheral and CNS tissues (Figure 2A and Supplemental Figure 3A). It also led to a ~5-fold increase in FL-SMN2 expression when compared with unconjugated PMO, MOE, and R6G-PMO treatments in the majority of the tissues (Figure 2A, Supplemental Figure 3A, and Supplemental Figure 1F). […] SMN levels were higher in CNS tissues in the DG9-PMO–treated than MOE-treated mice, though no statistical significance was seen. […] SMN levels were similar in DG9-PMO and MOE in the tissues collected from mice at PD30.
Total protein was extracted from frozen tissues harvested at PD7 or PD30 by using RIPA buffer (MilliporeSigma) with cOmplete, Mini, EDTA-free protease inhibitor cocktail (MilliporeSigma). The protein concentration was quantified using the Pierce BCA Protein Assay Kit (Thermo Fisher Scientific). […] The bands were detected using the Amersham ECL Select Western Blotting Detection Kit (GE Healthcare) and visualized by the ChemiDoc Touch Imaging system (Bio-Rad). […]

CC(=O)N[C@@H](Cc1ccc(O)cc1)C(=O)N[C@@H](C)C(=O)N[C@H](CCCNC(=N)N)C(=O)N[C@H](C(=O)N[C@@H](CCCNC(=N)N)C(=O)N[C@@H](CCCNC(=N)N)C(=O)N[C@H](CCCNC(=N)N)C(=O)NCC(=O)N1CCC[C@H]1C(=O)N[C@@H](CCCNC(=N)N)C(=O)NCC(=O)N[C@@H](Cc1ccc(O)cc1)C(=O)N[C@@H](C)C(=O)N[C@H](CCCNC(=N)N)C(=O)N[C@H](C(=O)N[C@@H](CCCNC(=N)N)C(=O)N[C@@H](CCCNC(=N)N)C(=O)N[C@H](CCCNC(=N)N)C(=O)NCC(=O)N1CCC[C@H]1C(=O)N[C@@H](CCCNC(=N)N)C(=O)N[C@H](CCCNC(=N)N)C(=O)N1C[C@@H](COP(=O)(N(C)C)N2C[C@@H](COP(=O)(N(C)C)N3C[C@@H](COP(=O)(N(C)C)N4C[C@@H](COP(=O)(N(C)C)N5C[C@@H](COP(=O)(N(C)C)N6C[C@@H](COP(=O)(N(C)C)N7C[C@@H](COP(=O)(N(C)C)N8C[C@@H](COP(=O)(N(C)C)N9C[C@@H](COP(=O)(N(C)C)N%10C[C@@H](COP(=O)(N(C)C)N%11C[C@@H](COP(=O)(N(C)C)N%12C[C@@H](COP(=O)(N(C)C)N%13C[C@@H](COP(=O)(N(C)C)N%14C[C@@H](COP(=O)(N(C)C)N%15C[C@@H](COP(=O)(N(C)C)N%16C[C@@H](COP(=O)(N(C)C)N%17C[C@@H](COP(=O)(N(C)C)N%18C[C@@H](COP(=O)(N(C)C)N%19CCC(C(N)=O)CC%19)O[C@@H](n%19cc(C)c(=O)[nH]c%19=O)C%18)O[C@@H](n%18ccc(N)nc%18=O)C%17)O[C@@H](n%17cnc%18c(N)ncnc%18%17)C%16)O[C@@H](n%16ccc(N)nc%16=O)C%15)O[C@@H](n%15cc(C)c(=O)[nH]c%15=O)C%14)O[C@@H](n%14cc(C)c(=O)[nH]c%14=O)C%13)O[C@@H](n%13cc(C)c(=O)[nH]c%13=O)C%12)O[C@@H](n%12ccc(N)nc%12=O)C%11)O[C@@H](n%11cnc%12c(N)ncnc%12%11)C%10)O[C@@H](n%10cc(C)c(=O)[nH]c%10=O)C9)O[C@@H](n9cnc%10c(N)ncnc%109)C8)O[C@@H](n8cnc9c(N)ncnc98)C7)O[C@@H](n7cc(C)c(=O)[nH]c7=O)C6)O[C@@H](n6cnc7c(=O)[nH]c(N)nc76)C5)O[C@@H](n5ccc(N)nc5=O)C4)O[C@@H](n4cc(C)c(=O)[nH]c4=O)C3)O[C@@H](n3cnc4c(=O)[nH]c(N)nc43)C2)O[C@@H](n2cnc3c(=O)[nH]c(N)nc32)C1)C(C)C)C(C)C (stereo partly shown) [DG9-PMO]
uptake of PMO versus unconjugated PMO, mild SMA model (F0) [1]: significantly increased the uptake of PMO in the CNS and peripheral tissues
FL-SMN2 expression, mild SMA model (F0) (SMN2 (ISS-N1 intron 7)): significant increase in the FL-SMN2 expression in both the CNS and peripheral tissues
level at time molar at 7 days after dosing (PD7) ([2]; brain, n = 5, read-out: average AO detection, brain): 8.36 nM
level at time molar at 7 days after dosing (PD7) ([2]; heart, n = 4, read-out: average AO detection, heart): 8.89 nM
level at time molar at 7 days after dosing (PD7) ([2]; kidney, n = 6, read-out: average AO detection, kidney): 20000 nM
level at time molar at 7 days after dosing (PD7) ([2]; liver, n = 5, read-out: average AO detection, liver): 200000 nM
level at time molar at 7 days after dosing (PD7) ([2]; quadriceps muscle, n = 5, read-out: average AO detection, quadriceps muscle): 12.2 nM
level at time molar at 7 days after dosing (PD7) ([2]; spinal cord, n = 4, read-out: average AO detection, spinal cord): 13.9 nM
SMN expression at PD30 (Western blotting) (SMN protein; 40 mg/kg s.c. at PD0, tissues at PD30): sustained levels of SMN expression at PD30
SMN protein levels (Western blotting) (SMN protein; s.c. at PD0, tissues at PD7, relative to β-tubulin): increased SMN protein levels in both the peripheral and CNS tissues

— PMC10077475, “DG9-conjugated morpholino rescues phenotype in SMA mice by reaching the CNS via a subcutaneous administration” (JCI Insight, 2023)
